The target in experiment [1] is T1, recombinant human α5β1 integrin (human, UniProt P08648 42-1049; P05556 21-728).
T1 construct: integrin α5 subunit, human, recombinant; integrin β1 subunit, human, recombinant; also called rhα5β1; integrin α5β1; source: bought: R&D Systems (co-IP)
The experiment in a line: SPR; Biacore T200; LNA043 (~3,000 RU), FN1 or VTN (~500 RU) amine-coupled to CM5; integrins as analytes 0.6–10 μM, single-cycle kinetics, 37 °C, 1× HBS-N, 0.005% Tween 20, 1 mM MgCl2, 1 mM CaCl2, 2 mM MnCl2; 1:1 binding fit. Conditions: both partners purified.

For experiment [2], the target named is T2, recombinant human αvβ3 integrin (human, UniProt P06756 31-1048; P05106 27-718).
T2 construct: integrin αv subunit, human, recombinant; integrin β3 subunit, human, recombinant; also called rhαvβ3; integrin αvβ3; source: bought: R&D Systems (co-IP)
Described as above. Conditions: both partners purified.

T2 sequence (P06756 31-1048, chain 1 of 2): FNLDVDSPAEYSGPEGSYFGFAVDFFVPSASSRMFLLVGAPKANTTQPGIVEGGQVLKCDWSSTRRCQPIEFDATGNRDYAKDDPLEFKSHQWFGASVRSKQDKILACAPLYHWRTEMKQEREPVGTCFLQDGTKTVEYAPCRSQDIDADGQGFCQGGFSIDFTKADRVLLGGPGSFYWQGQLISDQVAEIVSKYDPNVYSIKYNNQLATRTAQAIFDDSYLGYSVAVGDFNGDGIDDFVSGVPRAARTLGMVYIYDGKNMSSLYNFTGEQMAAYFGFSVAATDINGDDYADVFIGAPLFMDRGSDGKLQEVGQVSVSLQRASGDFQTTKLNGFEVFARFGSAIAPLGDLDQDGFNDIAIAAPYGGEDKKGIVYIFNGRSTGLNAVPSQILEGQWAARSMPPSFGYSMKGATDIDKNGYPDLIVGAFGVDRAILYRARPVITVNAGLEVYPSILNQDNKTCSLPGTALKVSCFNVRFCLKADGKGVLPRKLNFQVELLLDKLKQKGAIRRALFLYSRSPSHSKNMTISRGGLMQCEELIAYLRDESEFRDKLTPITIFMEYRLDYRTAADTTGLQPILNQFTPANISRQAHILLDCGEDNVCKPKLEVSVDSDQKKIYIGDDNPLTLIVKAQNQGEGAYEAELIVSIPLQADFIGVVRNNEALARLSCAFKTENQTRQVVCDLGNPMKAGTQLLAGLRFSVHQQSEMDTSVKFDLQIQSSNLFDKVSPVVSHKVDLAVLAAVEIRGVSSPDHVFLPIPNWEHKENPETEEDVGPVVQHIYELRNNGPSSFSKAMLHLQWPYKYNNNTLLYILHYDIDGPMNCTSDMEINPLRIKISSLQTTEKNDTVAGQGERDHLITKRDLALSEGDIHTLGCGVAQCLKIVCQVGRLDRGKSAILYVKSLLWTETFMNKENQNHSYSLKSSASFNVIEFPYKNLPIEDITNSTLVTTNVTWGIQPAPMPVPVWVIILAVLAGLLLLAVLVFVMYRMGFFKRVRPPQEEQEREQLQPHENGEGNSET
T2 sequence (P05106 27-718, chain 2 of 2): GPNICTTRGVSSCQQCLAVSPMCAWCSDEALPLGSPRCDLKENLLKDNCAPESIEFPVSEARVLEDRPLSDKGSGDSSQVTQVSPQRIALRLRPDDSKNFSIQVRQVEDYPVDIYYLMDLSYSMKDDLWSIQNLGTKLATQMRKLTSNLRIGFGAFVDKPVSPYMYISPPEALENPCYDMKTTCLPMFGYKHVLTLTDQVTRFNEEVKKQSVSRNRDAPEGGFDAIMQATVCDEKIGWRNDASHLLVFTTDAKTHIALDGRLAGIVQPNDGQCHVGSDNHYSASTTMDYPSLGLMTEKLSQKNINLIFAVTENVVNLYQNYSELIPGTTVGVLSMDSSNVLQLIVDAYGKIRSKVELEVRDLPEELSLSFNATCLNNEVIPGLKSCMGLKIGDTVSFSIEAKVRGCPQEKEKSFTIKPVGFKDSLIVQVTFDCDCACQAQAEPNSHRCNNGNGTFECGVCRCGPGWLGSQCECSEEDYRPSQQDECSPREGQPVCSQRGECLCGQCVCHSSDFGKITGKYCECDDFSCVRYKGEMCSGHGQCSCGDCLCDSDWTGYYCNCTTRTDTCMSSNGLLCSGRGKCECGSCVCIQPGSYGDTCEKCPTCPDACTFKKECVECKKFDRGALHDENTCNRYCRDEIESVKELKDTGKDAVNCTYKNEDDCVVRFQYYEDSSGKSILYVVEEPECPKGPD

B1: LNA043 (domain or fragment)
chain: IPAECTTIYNRGEHTSGMYAIRPSNSQVFHVYCDVISGSPWTLIQHRIDGSQNFNETWENYKYGFGRLDGEFWLGLEKIYSIVKQSNYVLRIELEDWKDNKHYIEYSFYLGNHETNYTLHLVAITGNVPNAIPENKDLVFSTWDHKAKGHFNCPEGYSGGWWWHDECGENNLNGKYNKPRAQSKPERRRGLSWKSQNGRLYSIKSTKMLIHPTDSESFE
A word on the Kd: it is the concentration at which binding is half-saturated. In the case of B1, the Kd in experiment [1] was approximately 1.5 µM; in experiment [2], approximately 7.9 µM.
